Test results: patent US20120021995A1 (published 2012)

T1: DR4 (TRAIL-R1) on cancer cells (human, UniProt O00220 24-468)
T1 sequence: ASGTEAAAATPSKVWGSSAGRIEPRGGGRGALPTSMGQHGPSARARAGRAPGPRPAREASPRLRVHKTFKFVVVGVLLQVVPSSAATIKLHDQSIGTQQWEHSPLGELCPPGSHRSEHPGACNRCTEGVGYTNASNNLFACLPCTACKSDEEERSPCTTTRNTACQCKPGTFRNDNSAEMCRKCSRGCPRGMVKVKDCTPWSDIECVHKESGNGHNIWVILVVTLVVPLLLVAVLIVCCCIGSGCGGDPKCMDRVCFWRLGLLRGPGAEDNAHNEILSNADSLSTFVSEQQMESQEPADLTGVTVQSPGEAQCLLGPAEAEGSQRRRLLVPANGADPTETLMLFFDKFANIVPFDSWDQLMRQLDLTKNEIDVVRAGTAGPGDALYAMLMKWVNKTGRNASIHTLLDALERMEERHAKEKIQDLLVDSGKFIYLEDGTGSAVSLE

T2: recombinant human TRAIL R1 (DR4)/Fc chimera (human, UniProt O00220 24-239)
T2 construct: bought (R&D Systems); not shown: Fc of the bought chimera (R&D Systems)
T2 sequence: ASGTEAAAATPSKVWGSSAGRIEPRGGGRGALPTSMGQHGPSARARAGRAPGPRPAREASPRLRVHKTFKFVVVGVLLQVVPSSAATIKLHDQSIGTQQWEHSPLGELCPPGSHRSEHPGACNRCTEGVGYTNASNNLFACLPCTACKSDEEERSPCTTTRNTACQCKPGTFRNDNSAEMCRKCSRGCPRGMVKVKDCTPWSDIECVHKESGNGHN


How the values were obtained:
[1] = target: T1, DR4 (TRAIL-R1) on cancer cells; assay: cell-based or functional assay
[2] = target: T2, recombinant human TRAIL R1 (DR4)/Fc …; assay: phage ELISA on DR4/Fc
Description: The remaining overnight culture was used to make a master stock plate by adding 100 μL of 50% glycerol to each well and storing at −80° C. The replica culture plate was grown at 37° C. with shaking at 250 rpm for approximately 2 hrs until the OD₆₀₀ was 0.5-0.7. The wells were then infected with K07 helper phage to 5×10⁹ pfu/mL mixed and incubated at 37° C. for 30 minutes without shaking, then incubated an addition 30 minutes at 37° C. with shaking at 250 rpm. The cultures were then spun down at 2500 rpm and 4° C. for 20 minutes. The supernatants were removed from the wells and the bacterial cell pellets were re-suspended in 500 μL of 2xYT containing 50 μg/mL carbenicillin and 50 μg/mL kanamycin. An air-permeable membrane was placed on the culture block and cells were grown overnight at room temperature with shaking at 250 rpm.
On day 3, cultures were spun down and supernatants containing the phage were blocked with 3% milk/PBS for 1 hr at room temperature. An initial Phage ELISA was performed using 75-100 ng of antigen bound per well. Non-specific binding was measured using 75-100 ng of human IgG1 Fc per well. DR4/Fc antigen (R&D Systems)-coated wells and IgG Fc coated wells were prepared fresh the night before by binding the above amount of antigen diluted in 100 μL of PBS per well. Antigen plates were incubated overnight at 4° C. then for 1 hour at 37° C., washed twice with PBS/0.05% Tween 20 and twice with PBS, and then blocked with 3% milk/PBS for 1 hr at 37° C. prior to the ELISA. Blocked phage were bound to blocked antigen-bound plates for 1 hr then washed twice with 0.05% Tween 20/PBS and then twice more with PBS. A HRP-conjugated anti-M13 secondary antibody diluted in 3% milk/PBS was then applied, with binding for 1 hr and washing as described above. The ELISA signal was developed using 90 μL TMB substrate mix and then stopped with 90 μL 0.2 M sulfuric acid, then ELISA plates were read at 450 nm. […] Secondary ELISA screens were performed similarly to the protocol detailed above.

Row | Binder | binding result [2] | other results
1 | 71p88P1A1 (designed binder) EPPTQKPKKIVNAKKDVVNTKMFEELKSRLDTLAQEVALLKEQQALQTVCLKGTKVHMKCFLAFTQTKTFHEASEDCISRGGTLSTPQTGSENDALYEYLRQSVGNEAEIWLGLNGWMDGSGWVDMTGARIAYKNWETEITAQPDGGRLWRWENCAVLSGAANGKWFDKRCRDQLPYICQFGIV |  | Colo205 % killing (% of TRAIL activity) [1]: -1%; H2122 % killing (% of TRAIL activity) [1]: -2%; ST486 % killing (% of TRAIL activity) [1]: 57%
2 | 71p88P1B4 (designed binder) EPPTQKPKKIVNAKKDVVNTKMFEELKSRLDTLAQEVALLKEQQALQTVCLKGTKVHMKCFLAFTQTKTFHEASEDCISRGGTLSTPQTGSENDALYEYLRQSVGNEAEIWLGLNGWLEGYGWVDMTGARIAYKNWETEITAQPDGGAERAWENCAVLSGAANGKWFDKRCRDQLPYICQFGIV |  | Colo205 % killing (% of TRAIL activity) [1]: -25%; H2122 % killing (% of TRAIL activity) [1]: -5%; ST486 % killing (% of TRAIL activity) [1]: -15%
3 | 064-36.1B7 (designed binder, on phage) ALQTVCLKGTKVHMKCFLAFTQTKTFHEASEDCISRGGTLSTPQTGSENDALYEYLRQSVGNEAEIWLGLNGWMAGVGWVDMTGARIAYKNWETEITAQPDGGRRLPWENCAVLSGAANGKWFDKRCRDQLPYICQFGIV | binds | 
4 | 064-36.1E1 (designed binder, on phage) ALQTVCLKGTKVHMKCFLAFTQTKTFHEASEDCISRGGTLSTPQTGSENDALYEYLRQSVGNEAEIWLGLNIWPLRFRWVDMTGARIAYKNWETEITAQPDGGFVTRKENCAVLSGAANGKWFDKRCRDQLPYICQFGIV | binds | 
5 | 064-36.1E4 (designed binder, on phage) ALQTVCLKGTKVHMKCFLAFTQTKTFHEASEDCISRGGTLSTPQTGSENDALYEYLRQSVGNEAEIWLGLNVLRLAWSWVDMTGARIAYKNWETEITAQPDGGKRNGCENCAVLSGAANGKWFDKRCRDQLPYICQFGIV | binds | 
6 | 064-99.2H5 (designed binder, on phage) ALQTVCLKGTKVHMKCFLAFTQTKTFHEASEDCISRGGTLSTPQTGSENDALYEYLRQSVGNEAEIWLGLNGLLSDWWWVDMTGARIAYKNWETEITAQPDGGGNQSRENCAVLSGAANGKWFDKRCRDQLPYICQFGIV | binds | 
7 | 064-36.1G4 (designed binder, on phage) ALQTVCLKGTKVHMKCFLAFTQTKTFHEASEDCISRGGTLSTPQTGSENDALYEYLRQSVGNEAEIWLGLNRCLQGVGWVDMTGARIAYKNWETEITAQPDGGRGWPWENCAVLSGAANGKWFDKRCRDQLPYICQFGIV | binds | 
8 | 064-40.2C7 (designed binder, on phage) ALQTVCLKGTKVHMKCFLAFTQTKTFHEASEDCISRGGTLSTPQTGSENDALYEYLRQSVGNEAEIWLGLNSYRLHYGWVDMTGARIAYKNWETEITAQPDGGRRWLGENCAVLSGAANGKWFDKRCRDQLPYICQFGIV | binds | 
9 | 064-40.1E11 (designed binder, on phage) ALQTVCLKGTKVHMKCFLAFTQTKTFHEASEDCISRGGTLSTPQTGSENDALYEYLRQSVGNEAEIWLGLNWLSLFSPWVDMTGARIAYKNWETEITAQPDGGRGVRGENCAVLSGAANGKWFDKRCRDQLPYICQFGIV | binds | 
10 | 064-40.1G11 (designed binder, on phage) ALQTVCLKGTKVHMKCFLAFTQTKTFHEASEDCISRGGTLSTPQTGSENDALYEYLRQSVGNEAEIWLGLNVARWLLKWVDMTGARIAYKNWETEITAQPDGGMCKPCENCAVLSGAANGKWFDKRCRDQLPYICQFGIV | binds | 
11 | 064-40.2E10 (designed binder, on phage) ALQTVCLKGTKVHMKCFLAFTQTKTFHEASEDCISRGGTLSTPQTGSENDALYEYLRQSVGNEAEIWLGLNGYLDGVGWVDMTGARIAYKNWETEITAQPDGGQGCRWENCAVLSGAANGKWFDKRCRDQLPYICQFGIV | binds | 
12 | 064-36.1G10 (designed binder, on phage) ALQTVCLKGTKVHMKCFLAFTQTKTFHEASEDCISRGGTLSTPQTGSENDALYEYLRQSVGNEAEIWLGLNGYLQGSGWVDMTGARIAYKNWETEITAQPDGGWKTRWENCAVLSGAANGKWFDKRCRDQLPYICQFGIV | binds | 
13 | 064-36.1D7 (designed binder, on phage) ALQTVCLKGTKVHMKCFLAFTQTKTFHEASEDCISRGGTLSTPQTGSENDALYEYLRQSVGNEAEIWLGLNVRHWLQLWVDMTGARIAYKNWETEITAQPDGGGWWKGENCAVLSGAANGKWFDKRCRDQLPYICQFGIV | binds | 
14 | 064-101.4B10 (designed binder, on phage) ALQTVCLKGTKVHMKCFLAFTQTKTFHEASEDCISRGGTLSTPQTGSENDALYEYLRQSVGNEAEIWLGLNQWVAFWSWVDMTGARIAYKNWETEITAQPDGGSAVSGENCAVLSGAANGKWFDKRCRDQLPYICQFGIV | binds | 
15 | 064-98.1G6 (designed binder, on phage) ALQTVCLKGTKVHMKCFLAFTQTKTFHEASEDCISRGGTLSTPQTGSENDALYEYLRQSVGNEAEIWLGLNGWLSGYGWVDMTGARIAYKNWETEITAQPDGGRVWSWENCAVLSGAANGKWFDKRCRDQLPYICQFGIV | binds | 
16 | 064-36.1E12 (designed binder, on phage) ALQTVCLKGTKVHMKCFLAFTQTKTFHEASEDCISRGGTLSTPQTGSENDALYEYLRQSVGNEAEIWLGLNGCTQGQGWVDMTGARIAYKNWETEITAQPDGGKKWKWENCAVLSGAANGKWFDKRCRDQLPYICQFGIV | binds | 
17 | 064-36.1E10 (designed binder, on phage) ALQTVCLKGTKVHMKCFLAFTQTKTFHEASEDCISRGGTLSTPQTGSENDALYEYLRQSVGNEAEIWLGLNGFLAGVGWVDMTGARIAYKNWETEITAQPDGGWWTRWENCAVLSGAANGKWFDKRCRDQLPYICQFGIV | binds | 
18 | 064-40.1G9 (designed binder, on phage) ALQTVCLKGTKVHMKCFLAFTQTKTFHEASEDCISRGGTLSTPQTGSENDALYEYLRQSVGNEAEIWLGLNGWLSGVGWVDMTGARIAYKNWETEITAQPDGGWAHAWENCAVLSGAANGKWFDKRCRDQLPYICQFGIV | binds | 
19 | 064-40.2D9 (designed binder, on phage) ALQTVCLKGTKVHMKCFLAFTQTKTFHEASEDCISRGGTLSTPQTGSENDALYEYLRQSVGNEAEIWLGLNWQLYYRYWVDMTGARIAYKNWETEITAQPDGGVGCMVENCAVLSGAANGKWFDKRCRDQLPYICQFGIV | binds | 
20 | 064-40.2A10 (designed binder, on phage) ALQTVCLKGTKVHMKCFLAFTQTKTFHEASEDCISRGGTLSTPQTGSENDALYEYLRQSVGNEAEIWLGLNGVLQRGGWVDMTGARIAYKNWETEITAQPDGGPGGERENCAVLSGAANGKWFDKRCRDQLPYICQFGIV | binds | 
21 | 064-101.4H1 (designed binder, on phage) ALQTVCLKGTKVHMKCFLAFTQTKTFHEASEDCISRGGTLSTPQTGSENDALYEYLRQSVGNEAEIWLGLNPYTSWGLWVDMTGARIAYKNWETEITAQPDGGVGGRGENCAVLSGAANGKWFDKRCRDQLPYICQFGIV | binds | 
22 | 064-40.2G11 (designed binder, on phage) ALQTVCLKGTKVHMKCFLAFTQTKTFHEASEDCISRGGTLSTPQTGSENDALYEYLRQSVGNEAEIWLGLNGWLEGAGWVDMTGARIAYKNWETEITAQPDGGWQWRWENCAVLSGAANGKWFDKRCRDQLPYICQFGIV | binds | 
